# Test results taken from the Human Domainome abundance scans (Beltran et al. 2025).
# ± gives the uncertainty stated by the source.
# B1: Unconventional myosin-Ie, residues 1051 to 1108; numbered along this chain, Q12965 (parent)
# chain: PQVPQCKALYAYDAQDTDELSFNANDIIDIIKEDPSGWWTGRLRGKQGLFPNNYVTKI
# Variants of: B1
# Experiment: abundance fitness (aPCA) (normalised: wild type 0, dead -1); higher = more abundant; growth selection in yeast, the domain comes from the species named
# Settings: Homo sapiens
row,Variant,abundance fitness
1,G48K,-0.718 ± 0.16
2,G48M,-0.579 ± 0.39
3,G48F,-0.598 ± 0.46
4,G48C,-0.477 ± 0.2
5,G48N,-0.626 ± 0.17
6,G48A,-0.171 ± 0.093
7,G48D,-0.885 ± 0.27
8,D26F,-0.726 ± 0.27
9,D26M,-0.86 ± 0.12
10,D26C,-0.957 ± 0.28
11,P1H,0.305 ± 0.39
12,P1G,-0.198 ± 0.065
13,A8V,-0.714 ± 0.11
14,A8P,-0.732 ± 0.27
15,A8I,-1 ± 0.086
16,A8M,-0.817 ± 0.32
17,A8G,-0.748 ± 0.077
18,Q5M,-0.041 ± 0.074
19,Q5C,-0.269 ± 0.095
20,N53T,-0.275 ± 0.097
21,N53D,0.016 ± 0.052
22,N53V,-0.176 ± 0.063
23,N53S,-0.262 ± 0.052
24,N53F,0.071 ± 0.1

row,Variant,abundance fitness
1,N53M,0.075 ± 0.072
2,S36L,-0.341 ± 0.05
3,S36P,-0.883 ± 0.18
4,S36D,-0.033 ± 0.039
5,S36E,-0.279 ± 0.065
6,I31N,-0.891 ± 0.45
7,I31W,-0.479 ± 0.042
8,I31C,-0.089 ± 0.064
9,I31E,-0.26 ± 0.055
10,T40Q,-0.075 ± 0.066
11,T40G,-0.647 ± 0.086
12,T40R,-0.123 ± 0.045
13,T40P,-1.01 ± 0.071
14,T40E,-0.203 ± 0.092
15,L20E,-0.807 ± 0.13
16,L20H,-0.977 ± 0.49
17,P51H,-0.264 ± 0.15
18,P51M,-0.484 ± 0.14
19,P51Q,-0.438 ± 0.14
20,P51L,-0.198 ± 0.057
21,G37M,-0.545 ± 0.12
22,G37P,-0.54 ± 0.095
23,G37Y,-0.811 ± 0.26
24,G37V,-0.781 ± 0.041

row,Variant,abundance fitness
1,G37W,-0.677 ± 0.13
2,C6K,-1 ± 0.18
3,C6V,-0.001 ± 0.043
4,C6G,0 ± 0.041
5,C6T,-0.768 ± 0.14
6,C6H,-0.839 ± 0.17
7,Q47N,-0.507 ± 0.24
8,Q47K,0.007 ± 0.1
9,Q47D,-0.417 ± 0.16
10,A24H,-0.06 ± 0.12
11,A24S,-0.108 ± 0.053
12,A24N,-0.648 ± 0.29
13,A24F,-0.106 ± 0.1
14,A24V,-0.05 ± 0.034
15,V55A,-0.387 ± 0.069
16,I58F,-0.116 ± 0.084
17,I58S,-0.15 ± 0.049
18,I58V,-0.055 ± 0.039
19,K57D,-0.295 ± 0.1
20,K57G,-0.391 ± 0.047
21,D16I,-0.557 ± 0.16
22,D16Y,-0.093 ± 0.088
23,D16V,-0.169 ± 0.056
24,D16H,-0.206 ± 0.12

row,Variant,abundance fitness
1,D16C,-0.057 ± 0.055
2,G41H,-0.83 ± 0.28
3,G41N,-0.87 ± 0.14
4,G41F,-0.756 ± 0.37
5,G41P,-0.826 ± 0.18
6,G41A,-0.8 ± 0.045
7,G41L,-0.474 ± 0.18
8,T56S,-0.042 ± 0.047
9,T56V,-0.074 ± 0.034
10,T56C,-0.074 ± 0.078
11,G45P,-0.977 ± 0.49
12,G45Q,-0.149 ± 0.083
13,G45A,-0.319 ± 0.07
14,G45E,-0.058 ± 0.035
15,G45R,-0.337 ± 0.043
16,G45F,-0.321 ± 0.11
17,G45H,-0.1 ± 0.07
18,G45N,0.06 ± 0.08
19,D29A,-0.205 ± 0.043
20,D29P,-1.03 ± 0.41
21,D29M,-0.243 ± 0.076
22,D29C,-0.298 ± 0.086
23,D29Q,-0.241 ± 0.067
24,D29S,-0.185 ± 0.055

row,Variant,abundance fitness
1,D29R,-0.387 ± 0.032
2,F22R,-0.953 ± 0.11
3,F22K,-0.754 ± 0.18
4,F22W,-0.996 ± 0.14
5,F22E,-0.858 ± 0.21
6,F22M,-0.441 ± 0.055
7,S21W,-0.559 ± 0.13
8,S21M,-0.803 ± 0.15
9,S21N,-0.175 ± 0.093
10,S21Q,-0.325 ± 0.087
11,S21V,-0.891 ± 0.1
12,S21T,-0.058 ± 0.042
13,R44V,-0.19 ± 0.069
14,R44A,-0.074 ± 0.051
15,R44E,-0.319 ± 0.097
16,P35F,-0.329 ± 0.12
17,P35S,-0.022 ± 0.039
18,D18N,-0.055 ± 0.077
19,D18H,-0.279 ± 0.086
20,D18Y,-0.078 ± 0.076
21,D18R,-0.065 ± 0.037
22,D18L,-0.063 ± 0.049
23,E33I,-0.185 ± 0.054
24,E33V,-0.26 ± 0.045

row,Variant,abundance fitness
1,E33S,-0.398 ± 0.045
2,E33H,-0.758 ± 0.45
3,E33F,-0.376 ± 0.17
4,A11M,-0.149 ± 0.037
5,A11E,-0.059 ± 0.059
6,A11Q,0.045 ± 0.062
7,T17W,-0.091 ± 0.035
8,T17A,0.026 ± 0.048
9,T17E,-0.272 ± 0.09
10,T17R,-0.111 ± 0.049
11,T17S,-0.077 ± 0.05
12,L43A,-0.123 ± 0.04
13,L43R,-0.417 ± 0.041
14,L43Q,-0.621 ± 0.079
15,L43N,-0.331 ± 0.069
16,L43E,-0.701 ± 0.068
17,L43S,-0.269 ± 0.051
18,L49T,-0.288 ± 0.078
19,L49K,0.036 ± 0.066
20,L49P,-0.656 ± 0.091
21,L49Q,-0.151 ± 0.075
22,L49A,-0.236 ± 0.065
23,L49E,-0.242 ± 0.057
24,Y12R,-0.107 ± 0.037

row,Variant,abundance fitness
1,Y12H,-0.274 ± 0.12
2,Y12Q,-0.887 ± 0.081
3,K7F,-0.267 ± 0.054
4,K7Y,-0.074 ± 0.045
5,K7C,-0.028 ± 0.072
6,K7E,-0.264 ± 0.069
7,K7L,-0.106 ± 0.052
8,K7N,-0.647 ± 0.2
9,K7V,-0.057 ± 0.042
10,K7Q,-0.287 ± 0.092
11,K7G,-0.943 ± 0.091
12,N52V,-0.068 ± 0.047
13,N52H,-0.087 ± 0.1
14,N52F,0.002 ± 0.031
15,N23I,-0.081 ± 0.03
16,N23P,-0.788 ± 0.041
17,N23F,-0.076 ± 0.03
18,I30G,-0.719 ± 0.071
19,I30R,-1.01 ± 0.067
20,I30V,0.058 ± 0.054
21,I30A,-0.78 ± 0.12
22,I30S,-0.992 ± 0.13
23,I30Y,-1 ± 0.14
24,I30D,-0.628 ± 0.24

row,Variant,abundance fitness
1,I30L,-0.077 ± 0.055
2,R42I,-0.356 ± 0.16
3,R42L,-0.161 ± 0.065
4,R42K,0.104 ± 0.076
5,R42W,-0.06 ± 0.059
6,E19D,-0.54 ± 0.09
7,E19L,-0.435 ± 0.081
8,K32W,-0.205 ± 0.069
9,K32R,-0.042 ± 0.037
10,K32A,-0.056 ± 0.04
11,K32T,-0.173 ± 0.074
12,K32G,-0.097 ± 0.029
13,N25F,-0.302 ± 0.063
14,N25K,-0.198 ± 0.064
15,N25T,-0.215 ± 0.065
16,N25S,-0.088 ± 0.038
17,N25G,-0.046 ± 0.041
18,N25A,-0.129 ± 0.054
19,Q15N,0.037 ± 0.11
20,Q15Y,-0.312 ± 0.047
21,Q15C,-0.239 ± 0.11
22,Q15G,-0.157 ± 0.031
23,Q15F,-0.291 ± 0.21
24,Q15V,-0.193 ± 0.038

row,Variant,abundance fitness
1,Q15E,-0.23 ± 0.087
2,Q15A,-0.087 ± 0.03
3,A14N,-0.452 ± 0.19
4,A14E,-0.695 ± 0.15
5,A14G,-0.173 ± 0.037
6,A14I,-0.901 ± 0.31
7,A14D,-0.797 ± 0.19
8,A14Q,-0.345 ± 0.08
9,A14M,-0.42 ± 0.12
10,A14L,-0.98 ± 0.13
11,A14H,-0.741 ± 0.26
12,A14S,-0.188 ± 0.061
13,Q2Y,-0.373 ± 0.22
14,Q2S,-0.223 ± 0.084
15,Q2I,-0.176 ± 0.16
16,Q2V,-0.173 ± 0.066
17,Q2G,-0.102 ± 0.054
18,F50E,-0.911 ± 0.12
19,F50A,-0.841 ± 0.11
20,F50T,-1.08 ± 0.18
21,D34R,-0.173 ± 0.053
22,D34K,-0.445 ± 0.087
23,D34Y,-0.27 ± 0.069
24,D34L,-0.3 ± 0.053

row,Variant,abundance fitness
1,D34F,-0.332 ± 0.12
2,D34T,-0.123 ± 0.036
3,D34N,0.014 ± 0.078
4,D13Q,-0.018 ± 0.067
5,D13W,-0.368 ± 0.056
6,D13E,-0.067 ± 0.044
7,W39E,-1 ± 0.22
8,W39P,-0.559 ± 0.049
9,W39K,-0.677 ± 0.32
10,W39H,-0.732 ± 0.22
11,L9T,-0.491 ± 0.05
12,L9G,-0.624 ± 0.049
13,L9V,-0.148 ± 0.039
14,L9E,-0.149 ± 0.059
15,I27R,-0.374 ± 0.049
16,I27V,-0.085 ± 0.049
17,I27Q,-0.327 ± 0.077
18,K46D,-0.33 ± 0.12
19,K46G,-0.411 ± 0.074
20,K46H,-0.172 ± 0.11
21,K46C,-0.099 ± 0.051
22,K46I,-0.351 ± 0.11
23,K46F,-0.364 ± 0.18
24,K46W,-0.569 ± 0.17

row,Variant,abundance fitness
1,K46R,-0.01 ± 0.04
2,Y10G,-0.309 ± 0.033
3,Y10D,-0.247 ± 0.068
4,Y10I,-0.364 ± 0.091
5,Y10E,-0.217 ± 0.05
6,Y10M,-0.158 ± 0.039
7,Y10S,-0.166 ± 0.031
8,Y10L,-0.16 ± 0.049
9,I28V,-0.472 ± 0.45
10,I28T,-0.386 ± 0.29
11,Y54L,-0.04 ± 0.056
12,Y54F,-0.243 ± 0.096
13,Y54A,-0.055 ± 0.032
14,Y54C,-0.087 ± 0.064
15,Y54V,-0.145 ± 0.047
16,Y54N,-0.657 ± 0.12
17,Y54M,-0.16 ± 0.085
